T1: human CLDN4 (human, UniProt O14493 1-209)
T1 construct: whole, on cells
T1 sequence (looked up): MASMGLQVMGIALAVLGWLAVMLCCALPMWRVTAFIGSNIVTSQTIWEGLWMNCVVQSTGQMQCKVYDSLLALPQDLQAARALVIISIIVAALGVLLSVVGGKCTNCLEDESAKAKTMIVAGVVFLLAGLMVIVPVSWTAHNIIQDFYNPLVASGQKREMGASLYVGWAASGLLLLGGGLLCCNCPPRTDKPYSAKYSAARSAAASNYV

T2: human CLDN3 (human, UniProt O15551 1-220)
T2 construct: whole, on cells
T2 sequence (looked up): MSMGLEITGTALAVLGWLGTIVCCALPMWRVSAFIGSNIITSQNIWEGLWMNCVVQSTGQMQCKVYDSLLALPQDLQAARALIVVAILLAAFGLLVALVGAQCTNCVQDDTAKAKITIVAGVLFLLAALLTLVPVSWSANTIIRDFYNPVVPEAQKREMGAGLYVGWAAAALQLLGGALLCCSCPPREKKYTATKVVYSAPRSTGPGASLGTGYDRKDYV

T3: human claudin-6 (Homo sapiens, UniProt P56747)
T3 construct: expressed in transfected cells; host or cells: CHO-K1 cells
T3 sequence (P56747 1-220): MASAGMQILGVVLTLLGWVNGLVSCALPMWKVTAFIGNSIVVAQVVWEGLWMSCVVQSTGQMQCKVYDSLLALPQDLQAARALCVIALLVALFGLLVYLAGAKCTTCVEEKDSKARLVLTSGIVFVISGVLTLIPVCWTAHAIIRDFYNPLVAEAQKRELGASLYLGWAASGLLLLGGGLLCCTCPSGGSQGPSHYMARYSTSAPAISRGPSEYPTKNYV

T4: human CLDN6 (human, UniProt P56747 1-220)
T4 construct: Four-transmembrane protein, NP_067018; It was also expressed on CHO-K1 cells by cDNA transfection; In the immunoprecipitation it was the endogenous protein from NTERA-2 cell lysate; also called hCLDN6; claudin-6
T4 sequence: T3 sequence (P56747 1-220)

T5: human CLDN9 (human, UniProt O95484 1-217)
T5 construct: NP_066192; It was expressed on 293T cells transiently transfected with human CLDN9/pCMV6-Entry (OriGene); also called claudin-9
T5 sequence: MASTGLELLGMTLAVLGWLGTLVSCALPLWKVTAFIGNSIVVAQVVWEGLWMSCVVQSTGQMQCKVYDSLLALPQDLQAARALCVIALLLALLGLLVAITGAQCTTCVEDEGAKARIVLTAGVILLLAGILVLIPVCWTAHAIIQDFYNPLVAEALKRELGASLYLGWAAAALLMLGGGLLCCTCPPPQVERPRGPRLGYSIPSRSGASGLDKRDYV

B1: humanized anti-CLDN6 antibody H1L3 (antibody, human IgG1, kappa, L234A L235A, V domains shown)
VH: QVQLVQSGAEVKKPGASVKVSCKASGYTFTEYTMHWVRQAPGQGLEWMGGVNPNSGDTSYAQKFQGRVTITADTSTSTAYMELSSLRSEDTAVYYCARPGGYDVGYYAMDYWGQGTLVTVSS
VL: DIQMTQSPSSLSASVGDRVTITCRASQDINNYLNWYQQKPGGAVKLLIYFTSRLHSGVPSRFSGSGSGTDYTLTISSLQPEDFATYYCQQGYPLPWTFGGGTKVEIKR
notes: hH1 + hL3, with human IgG1 LALA constant region and human kappa chain; also called H1L3 antibody
B2: humanized anti-CLDN6 antibody H2L2 (antibody, human IgG1, kappa, L234A L235A, V domains shown)
VH: B1 VH with Q1E, A24T, Q43K, G44S
VL: B1 VL with G42K, D70H, G100Q
notes: hH2 + hL2, with human IgG1 LALA constant region and human kappa chain; also called H2L2 antibody
B3: humanized anti-CLDN6 antibody H1L1 (antibody, human IgG1, kappa, L234A L235A, V domains shown)
VH: B1 VH
VL: B1 VL with G42K, V44P, G100Q
notes: hH1 + hL1, with human IgG1 LALA constant region and human kappa chain; also called H1L1 antibody
B4: humanized anti-CLDN6 antibody H3L3 (antibody, human IgG1, kappa, L234A L235A, V domains shown)
VH: B1 VH with Q1E, A24T, I70L, A72V, T74K
VL: B1 VL
notes: hH3 + hL3, with human IgG1 LALA constant region and human kappa chain; also called H3L3 antibody
B5: humanized anti-CLDN6 antibody H2L4 (antibody, human IgG1, kappa, L234A L235A, V domains shown)
VH: B1 VH with Q1E, A24T, Q43K, G44S
VL: B1 VL with Y92N, P93T
notes: also called H2L4 antibody
B6: B1: mouse anti-CLDN6 antibody; heavy/light chain variable regions SEQ ID NO: 21 and 19 (antibody, listed as Mus musculus, V domains shown)
VH: EVQLQQSGPELVKPGASVKISCKTSGYTFTEYTMHWVQQSHGKSLEWIGGVNPNSGDTSYNQKFKGKATLTVDKSSSTAYMELRSLTSEDSAVYYCARPGGYDVGYYAMDYWGQGTSVTVSS
VL: DIQMTQTASSLSASLGDRVTISCRASQDINNYLNWYQQKPDGTVKLLIYFTSRLHSGVPSRFSGSGSGTHYSLTITNLEQEDIATYFCQQGYPLPWTFGGGTKLEIK
modifications: amino acid sequence of variable region of B1 antibody heavy chain; amino acid sequence of variable region of B1 antibody light chain
B7: C7: mouse anti-CLDN6 antibody; heavy/light chain variable regions SEQ ID NO: 25 and 23 (antibody, listed as Mus musculus, V domains shown)
VH: B6 VH
VL: B6 VL with F50S, N77H
modifications: amino acid sequence of variable region of C7 antibody heavy chain; amino acid sequence of variable region of C7 antibody light chain

Residue numbers refer to the chain shown, from its start.

This is an account of results in US20220168440A1, “ANTIBODY-PYRROLOBENZODIAZEPINE DEPRIVATIVE CONJUGATE” (DAIICHI SANKYO COMPANY, LIMITED, priority 2019, published 2022).

One experiment deals with T1, human CLDN4. As to the kind of experiment: flow cytometry on transiently transfected 293T cells.
Conditions: not given
As to the method:
(§1) Binding activity of the mouse anti-CLDN6 antibodies produced in Example 6 to human CLDN6 and its family molecules, CLDN3, CLDN4, and CLDN9, was evaluated by using a flow cytometry method. Human CLDN3/pCMV6-Entry, human CLDN4/pCMV6-Entry, human CLDN6/pCMV-Entry, human CLDN9/pCMV6-Entry, or pCMV6-Entry purchased from OriGene Technologies, Inc. was transiently transferred into 293T cells (Thermo Fisher Scientific, HCL4517) by using Lipofectamine 2000 (Thermo Fisher Scientific), and the cells were cultured under conditions of 37° C. and 5% CO₂ overnight, and then a cell suspension was prepared. […] The cells were washed twice with Dulbecco's phosphate buffered saline (Sigma-Aldrich Co. LLC) containing 5% fetal bovine serum (Hyclone) (hereinafter, referred to as 5% FBS-containing PBS), and FLUORESCEIN-CONJUGATED GOAT IGG FRACTION TO MOUSE IGG (WHOLE MOLECULE) (MP Biomedicals, Inc.) 500-fold diluted with 5% FBS-containing PBS was then added thereto, and the cells were suspended and left to stand at 4° C. for 1 hour. After washing twice with 5% FBS-containing PBS, detection was carried out by using a flow cytometer (FC500; Beckman Coulter, Inc.). Data analysis was carried out by using FlowJo (Tree Star, Inc.). […] In each graph in FIG. 40, the ordinate represents FITC fluorescence intensity indicating the amount of the binding antibody and the abscissa represents antibody concentrations.
(§2) The binding activity of the humanized anti-CLDN6 antibody produced in Example 10 to human CLDN6 and its family molecules, CLDN3, CLDN4, and CLDN9, was evaluated by using a flow cytometry method.
B1: the binding result was “no binding (tested: 100 nM)”.

Consider B2, for which the binding result is on record as “no binding (tested: 100 nM)”.

Consider B3, for which the binding result is given as “no binding (tested: 100 nM)”.

In the case of B4, the binding result was “no binding (tested: 100 nM)”.

For B5, the binding result is reported as “no binding (tested: 100 nM)”.

The target of a further experiment is T2, human CLDN3. The description is as above.
Conditions: not given
How it is done: as §1, §2
Consider B1, for which the binding result is reported as “no binding (tested: 100 nM)”.

B2: the binding result is “no binding (tested: 100 nM)”.

Turning to B3, the binding result is “no binding (tested: 100 nM)”.

Turning to B4, the binding result is recorded as “no binding (tested: 100 nM)”.

With B5, the binding result is reported as “no binding (tested: 100 nM)”.

The test system of the next experiment is JEG-3. Kind of experiment: Internalization activity by Mab-ZAP (saporin-conjugated anti-mouse IgG), cell survival. As to conditions: human CLDN6-positive choriocarcinoma cell line JEG-3; antibody 1 nM, Mab-ZAP 0.5 nM; 5 days. Format: cell-based. As to the method: (§3) Internalization activity of the mouse anti-CLDN6 antibodies B1 and C7 was evaluated by using the anti-mouse IgG reagent, to which a toxin that inhibits protein synthesis (saporin) had been conjugated, Mab-ZAP (Advanced Targeting Systems). In this evaluation, Mab-ZAP is incorporated into cells in a manner depending on the internalization activity of a mouse anti-CLDN6 antibody, and saporin, which inhibits protein synthesis, is released in the cells to suppress cell growth.
(§4) JEG-3(ATCC HTB-36), a human choriocarcinoma cell line of human CLDN6-positive cells, NIH:OVCAR-3 (ATCC HTB-161), a human ovarian cancer cell line of human CLDN6-positive cells, or BxPC-3 (ATCC CRL-1687), a human pancreatic cancer cell line of human CLDN6-negative cells, was seeded in a 96-well cell culture microplate at 2×10^3 cells/well, and cultured under conditions of 37° C. and 5% CO2 overnight. On the next day, a mixed solution obtained by mixing each mouse anti-CLDN6 antibody or mouse IgG1 antibody (R&D Systems, Inc.) to a final concentration of 1 nM, with Mab-ZAP (final concentration: 0.5 nM) or AffiniPure Goat Anti-Mouse IgG, Fcγ Fragment Specific (Jackson ImmunoResearch Laboratories Inc.) (final concentration: 0.5 nM), without conjugated toxin, was added, and the cells were cultured under conditions of 37° C. and 5% CO2 for 5 days. The number of surviving cells was determined through quantification of ATP activity by using CellTiter-Glo Luminescent Cell Viability Assay (Promega Corporation).
Take B6: the “cell growth-suppressing effect (relative survival rate) with Mab-ZAP” value is on record as “cell growth-suppressing effect”.

Consider B7, for which the “cell growth-suppressing effect (relative survival rate) with Mab-ZAP” value is “cell growth-suppressing effect”.

The next experiment deals with BxPC-3. Described as above. Format: cell-based. As to conditions: human CLDN6-negative pancreatic cancer cell line BxPC-3; antibody 1 nM, Mab-ZAP 0.5 nM; 5 days. As to the method: as §3, §4
Turning to B6, the “cell growth-suppressing effect (relative survival rate) with Mab-ZAP” value is listed as “no cell growth-suppressing effect”.

Take B7: the “cell growth-suppressing effect (relative survival rate) with Mab-ZAP” value is “no cell growth-suppressing effect”.

In the next experiment the test system is NIH:OVCAR-3. The description is as above. In kind it is cell-based. As to conditions: human CLDN6-positive ovarian cancer cell line NIH:OVCAR-3; antibody 1 nM, Mab-ZAP 0.5 nM; 5 days. How it is done: as §3, §4
With B6, the “cell growth-suppressing effect (relative survival rate) with Mab-ZAP” value is recorded as “cell growth-suppressing effect”.

In the case of B7, the “cell growth-suppressing effect (relative survival rate) with Mab-ZAP” value is “cell growth-suppressing effect”.

For the next experiment, the target named is T3, human claudin-6. Kind of experiment: FACS analysis of 218B1/218C7 antibodies on human claudin-6-expressing CHO-K1 cells. As to conditions: forced expression by cDNA transfection. Format: binding. How it is done:
Since the antigen for the 218B1 antibody and 218C7 antibody was estimated to be claudin-6 from the mass spectrometry, forced expression analysis by cDNA transfection was carried out.
A general note: A flow cytometer gives signals particle by particle.
With B6, the “FACS reaction for human claudin-6-expressing CHO-K1 cells” value is recorded as “strong positive reaction”.

As for B7, the “FACS reaction for human claudin-6-expressing CHO-K1 cells” value is reported as “strong positive reaction”.

A further experiment concerns the target T4, human CLDN6. As to the kind of experiment: flow cytometry (MFI) on transiently transfected 293T cells.
Conditions: not given
How it is done:
(§5) The binding activity of the humanized anti-CLDN6 antibody produced in Example 10 to human CLDN6 and its family molecules, CLDN3, CLDN4, and CLDN9, was evaluated by using a flow cytometry method. […] The cells were washed with Dulbecco's phosphate buffered saline (Sigma-Aldrich Co. LLC) containing 5% fetal bovine serum (Hyclone) (hereinafter, referred to as 5% FBS-containing PBS), and FITC AffiniPureF (ab′)2 Fragment Goat Anti-Human IgG (H+L) (Jackson ImmunoResearch Laboratories Inc.) 150-fold diluted with 5% FBS-containing PBS was then added thereto, and the cells were suspended and left to stand at 4° C. for 30 minutes. After washing with 5% FBS-containing PBS, detection was carried out by using a flow cytometer (FC500; Beckman Coulter, Inc.). Data analysis was carried out by using FlowJo (Tree Star, Inc.), and mean fluorescence intensity (MFI) of FITC, which indicates the amount of the binding antibody, was calculated. […] In each graph in FIG. 42, the abscissa represents antibody concentrations and the ordinate represents MFI.
B1: the binding result was “binds”.

Consider B2, for which the binding result was “binds”.

Consider B3, for which the binding result is “binds”.

In the case of B4, the binding result is given as “binds”.

With B5, the binding result is reported as “binds”.

For the next experiment, the target named is T5, human CLDN9. The experiment is described as above.
Conditions: not given
How it is done:
as §5
With B1, the binding result is on record as “binds”.

Take B2: the binding result is listed as “binds”.

Take B3: the binding result is on record as “binds”.

On to B4, for which the binding result is on record as “binds”.

Regarding B5, the binding result was “binds”.
